Data as given in the nanobody polyreactivity screen of Harvey et al. (2022).

Experiment: yeast display, Sf9 membrane polyspecificity reagent, FACS + sequencing; frameworks hold sequencing errors
Summary of the method: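 Synthetic nanobody libraries on Saccharomyces cerevisiae BJ5465 were galactose-induced for 36–48 hours, stained 1 hour at 4 °C with 10% biotinylated, detergent-solubilized Sf9 membrane reagent and enriched on streptavidin microbeads. FACS then separated cells into low and high (top ~1%) gates by anti-HA (expression) and streptavidin (reagent binding) fluorescence. Genes were colony-PCR amplified, MiSeq 2 × 250 sequenced and CDR-length filtered. A clone's polyreactivity label is that of its gate of origin.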

Row | Sequence | polyreactivity (PSR sort gate)
1 | QVQLQESGGGVQAGGSLRLSCAASGSISAPILMGWYRQAPGKERELVAGIGGGANTYYADSVKGRFTVSRDNAKYTVYLQMNSLKPEDTAVYYCAAGDYYWTNFGYWGQGTQVTASS | high polyreactivity
2 | QVQLQESGGGVQAGGSLRLSCAASGSISAPILMVWYRQAPGKERELVAGIGGGANTYYADSVKGRFTVSRDNAKYTVYLQMNSLKPEDTAVYYCAAGDYYWTNFGYWGQGTQVTASS | high polyreactivity
3 | QVQLQESGGLVQAGGSLRLSCAASGSISGRNVMGWYRQSPGKEREFVASITDGSSNNYADSVKGRFTISRDNAKNTVYLQMNSLKPKDTAVYYCAAYAQRAKSFGYWGRGTQVTVSS | low polyreactivity
4 | QVQLQESGGLVQAGGSLRMSCAASGSISGRNVMGWYRQAPGKEREFVASITDGSSTNYADSVKGRFTISRDNAKNTLFLQMNSLKPKDTAVYYCAAYAQRGKSFGYWGRGTQVTVSS | low polyreactivity
5 | QVQLQESGGVLVQEGGSLRLSCAASGNISPQADMGWYRQATGTERELVASIGTGGTTNYADSVKGRFTISRDNAKNTVYLQMNRLKPDDTAVYYCAAVRYEYNPYDYWGQGTQVTVSS | low polyreactivity
6 | QVQLQESGRRPGSAGVSPRMSCAASGNIFWVAVMCRYRQAPGKERELVASIGFGCTTYYADSVKCRFTISRDNAKITVYLQMLSLKPFDTAVYYCAAPHYDWGELDYWGQGTQVPVSS | low polyreactivity
7 | QVQLQESGVRMVQAGGSLRLSCAASGNIFLGDTMGWYRQAPGKEREFVAGIARGGNPYYADSEKGRLTISRNNANNTVYLEKISLKPEDSAVHYCSVQRSDASDYNYWGQGTQVTVIS | low polyreactivity
8 | QVQLQESRGGLVQAGGSLRLICAASGSISCPHVMGWYRQAPGKEREFVAAINVGANTYYADNVKGRFTISRDNAKNTVYLQKNSLKPEATAVYYCAAVYYGDIGHEYWGQGTQVTVSC | low polyreactivity
9 | QVQLQESVGGLVQADGSLRLSCAASGTIFTQSYMGWYRQAPGKEREFVAGISNGTKTNYGDSVKGRFTISRDNAKNTVYLQMHRLKLEDTAVYYCAVKGFYVDVLAYWGQGTHVTVSS | high polyreactivity
10 | QVQLQESVGLVQAGGLRLSCAASGSVSYQEAMGWYRQAPAKERELVATISFGANTNYADSVKGRFTISRDNAKNTVYLQMNCLKPEDTAVYYCAAESLFDDYYGYWGQGTQVTVSS | low polyreactivity
11 | QVQLQGSGAGLVQAGGSLRLSCAPSGYILQNVPMGWNRQAPGKERELVAGIDNGTSTNYADSVNGSFTISRDNAKNTVYLQMNSLKPEDTAVYYCAAAGQADETLGYWGQGTQVTVSR | low polyreactivity
12 | QVQLQGSGGGLAQAGDSLRLSCAASGTIFSEYNNGLVSPGAGQRTRTCCRYWCWGNTYYADSAKGRFTTSRDNANNTVYLQKNSLIPEDTAVYYCAFNRPYPSRHIYRGQGTQVTVSS | high polyreactivity
13 | QVQLQVSGGDLVPAGGSLRLSCAGSGTIYGLTSMAWYRQAPGKEREFVAAITDGGNANYADSVKGRFTISRDNAKNTVYLQMISLKPEDTAVYYCAVLFSDDAYYAYWGQGTQVTVSS | low polyreactivity
14 | QVQLQVSGGDLVQAGGSLRMSCAASGTIYGLTSMGWNRQAPGKEREFVAAITDGGNTNYADSVKGRFTISRDNAKNTVYLQMISLKPEDTAVFYCAVLFSDDAYYAYWGQGTQVNVSS | low polyreactivity
15 | QVQLRESGAGGRQPAPELRCERQYFYWSADGLVSQPPGKEREFVAGIDRGTITNYADSVRGRFTISRDNAKNTVYLQMNSLKPEDTAVYYCNAEYRRRPKLGDEDEYWGHGTQVTVSS | high polyreactivity
16 | QVQLRESGCGLVQAGGNLRLSCAASGNIFDADIMGWYGQAPGKERELVASITEGGSTNYADSVRCRFTISRDNAKNTVYLQMISLKPEDTAVYYCTAIAYPDIPTYFDHDSDYFYWGQGTQVTVSS | high polyreactivity
17 | QVQLRESGCGLVQAGGNLRLSCAASGNIFDADIMGWYRQAPGKERELVASITDGGSTYYADSVRCRFTISRDNAKNTVYLQMNSLKPEDTAVYYCTAIAYPDIPTYFDHDSDYFYWGQGTQVTVSS | high polyreactivity
18 | QVQLRESGGGLVQAGGSLRLSCAASGRIFSVYAMGWDRQAPGKERELVAAITRVGSTNYADSVKGRFTISRDNAKNTVYLQMNSLKPEDTAVYYCAARSTGYPTGRMYYWGQGTQVTVSS | high polyreactivity
19 | QVQLRESGGGLVQAGGSLRLSCAASGRILYSYAMGWYRQAPGKERELVAAISWRGGPTYYADSVKGRFTISRDYAKNSVYLPMNSLKPEDTAVYYCAAEFYDLPWLYDYWGQGTQVTVSS | low polyreactivity
20 | QVQLVASGGGLLQAGGSLRLSCAASGIIFDRYTMGWYRQAPGKERELVASISDDDGSTYYADSVKGRFTISRDNAKNTVYLQMNSLTPEDTAVYYCKALSIIFDYWGQATQVTVSS | low polyreactivity
21 | QVQLVASGGGLVHAGGSLRLSCAASGRIFTHNAMGWSRQAPGKEREMVAAITSGGRTTYADSVKGRFTISRDNAKNTVYFQMNSLKPEDTAVYYCNADTGLGSLDFDKRDYWGQGTQVTVSS | low polyreactivity
22 | QVQLVASGGGLVQTGGSLRLSCAASGSTCVWYTIGWYRQAPGKERELVADISRSGGSTYYADSVKGRFTISRDNAKKTIYLQKNSLKAEDTAVYYCARYGYVYNTREPPKVVTFDYSGQGTQVTVSS | high polyreactivity

Row | Sequence | polyreactivity (PSR sort gate)
23 | QVQLVASRGGLVQAGGILRLSSAASGSTFPSYEMGWYRQARGKERELVAAINSGRGSNYADSVKGRFTISRDNAKNTVYLQMNCLIPDDTAVYYCGISRYDYTNTEGGYWGQGTQVTVSS | low polyreactivity
24 | QVQLVDSAGGLVQAGGILRLSCAASGFTFDAKSRGWYRQAPGTERELVDAISLSDGSTYYADSVKGRFTISRDNAKNTVYLQMNSLKPEDTAVYYCNAERFGSGLAWLLFDYWGQGTQVTVSS | low polyreactivity
25 | QVQLVDSAGGLVQAGGSLRLSCAASGFIFRRNAMGWYRQAPGKERELVAGINRSGTRTYYADSVKGRFTISRDNAKNTVNLQMNSLKPEDTAVYYCAALVYRPTYGYIFDYWGQGTQVTVSS | high polyreactivity
26 | QVQLVDSAGGLVQAGGSLRLSCAASGSIFFRYAMGGYRQAAGKERELVAAITQRTGSTYYADSVKGRFTISRDNAKITVYLQMNSLKPEDTAVYYCAAKRWRRSFTGNYWGQGTQVTVSS | high polyreactivity
27 | QVQLVDSAGGLVQAGGSLRLSCAASGSIINSNAMGWYRQAPGKERELVAAINWRGGSTYYADSVKGRFTISRDNAKNTVYLQMNSLKPEDTAVYYCNALRRAPRAEYYYGGQGTQVTVSS | high polyreactivity
28 | QVQLVDSAGGLVQAGGSLSLSCAASGFIFGRYAMGWYRQAPGKERELVAVITWSGGRTYYADSVKGRFTISRDNAKNTVYLQMNSLKPEDTAVYYCAADRYPYHYGYDYWGQGTQVTVSS | high polyreactivity
29 | QVQLVDSGGCLVQAGGSHRLSCSASGRIYPWYAMVWYRQAPGKERELVASITRNGGDTYYADSVKGRFTISRDNAKNTVYLQMNSLKPEDTAVYYCNAVRGYWFRQKDTIELGYWGQGTQVTVSS | high polyreactivity
30 | QVQLVDSGGGFVQAGGSLRLSCAASGFIFRSYAMRWYRTAPGKERELVAAITKSGGRTYYADSVKGRFTISRDNAKNTVYLQMNSLKPEDTAVYYCAADGAYGGYDYWGQGTLVTVSS | low polyreactivity
31 | QVQLVDSGGGIVQAGGSLRLRCAASGFTFDFYAMGWYRQAPGKERELVADISSSDGSTYADSVKGRFTISRDNAKNTVYLQMNSLNPEDTAVYYCAADYDNQYDFSLDDEYWGQVTQVTVSS | low polyreactivity
32 | QVQLVDSGGGIVQAGGSLRLSCPASGITFPKYAMGWYRQAPGKERELVAAITKSSGSTYYADSVKGRFTISRDNAKNTVYLQMKSLKPEDTAVYYCAARRVNHIRSYSYVSNYGYWGQGTQVTVSS | high polyreactivity
33 | QVQLVDSGGGIVQAGGSLRVSCAASGRTFWYYTMGWYIQAPGKERELVAAITSGGSKYYSDSVKGRFTISRDNAKNTVYLQMISLNPEDTAVYYCAAYLLPAYSRISNDYWGQGTQVTVSS | high polyreactivity
34 | QVQLVDSGGGKVQAGGSLRLSCAASGITFSRNAMGWYRQAPGKEMELVAAITWNGGRTYYADSVKGRFTISRDNAKNTVDLQMNSLKPEDTAVYYCAADSGTRNLASYRYYYWGQGTQGTVSS | high polyreactivity
35 | QVQLVDSGGGLFQAGGSLRLSCAASGRTFVGYSMGWYRQAPGKEMEVVATITNDDITYADSVKGRFTISRDNAMNTVYLQMNSLNPEETAVYYCNTSYSYGTAYEQYRYKALYDYWGHGTQVTVSS | low polyreactivity
36 | QVQLVDSGGGLGQVGGSRRVSCAASGRTFWWYPMGWYRQSPGKERELVAAISRGSTNYADSVKGRFAISRDNAKNTVYLQMNSQKPEDTAVYYCAAYVVWLYGYDYGGQGTQVTVSS | low polyreactivity
37 | QVQLVDSGGGLLQAGASLRLSCAASGITFYINAMGWYRQPPGKERALVAVIDSRGSSTFYADSVKGRFTISRHNAKNSVYLQMNSLKPEYTAVYYCAAEPDTYWYTYDYWGQRTQVTVSS | low polyreactivity
38 | QVQLVDSGGGLLQAGGILSLSCAASGSIFPYYAMGWYRQAPGKERELVAVITTVGGSTYYADSVKGRFTISRDNAKYTVYLQMNSLKPEDTAVYYCADEEDYIYFYFSMDYWGQGTQVTVSS | low polyreactivity
39 | QVQLVDSGGGLVQAGGILRLSCAASGFIFKKNAMGWYRQAHGKEREFVAAITSSGGSTYYADSVKGRFTISRDNAKNTVYLQMNSLKPEDTAVYFCARGTSWWRSRSITFTYDYWGQGTQVTVSS | high polyreactivity
40 | QVQLVDSGGGLVQAGGILRLSCAASGRTFTYYTMGWYRQAPGKESEMVAAITWSGGRTYYADSVKGRFTISRDNAKNTVYLQMNILKPEDTAVYYCAAYEIYYEFDSWGQGTQVTVSS | low polyreactivity
41 | QVQLVDSGGGLVQAGGILRLSCAASGSTFRRYSMGWYRHAPGKQRELVAAISGRGGSTSYADSVKGRFTISRDNAKNTVYLQINSLKPEDTAVYYCAADDKYFYPGNGYWGQGTQVTVSS | high polyreactivity
42 | QVQLVDSGGGLVQAGGILRLSCAASGSTFRYYAMGWYRQAPGKERELVAAITKNGGSTYYADSVKGRFTISRDNAKNTVYLQMNSLKPEDTAVYYCAVQFSYSGWYYVSYYYWGQGTQVTVSS | high polyreactivity
43 | QVQLVDSGGGLVQAGGRLRLSCAASGFTFPSNAMGWYRKAPGKERQLVASINQRGGSTYYADSVKGRFTISRDNAKNTVYLQMNSLKPEDTAVYYCAAGPTSRRWYDYWGQGTQVTVSS | high polyreactivity
